Test results: US20110263454A1, “Methods of Identifying Functional Characteristics of Promoters, Transcription Modifying Proteins and Transcription Modulating Agents” (Salk Institute for Biological Studies, priority 2008, published 2011)

B1: TR2: Testicular Orphan Nuclear Receptor 2 (NR2C1), cDNA driver (protein, UniProt P13056 1-603, looked up)
Nuclear receptor subfamily 2 …: MATIEEIAHQIIEQQMGEIVTEQQTGQKIQIVTALDHNTQGKQFILTNHDGSTPSKVILARQDSTPGKVFLTTPDAAGVNQLFFTTPDLSAQHLQLLTDNSPDQGPNKVFDLCVVCGDKASGRHYGAVTCEGCKGFFKRSIRKNLVYSCRGSKDCIINKHHRNRCQYCRLQRCIAFGMKQDSVQCERKPIEVSREKSSNCAASTEKIYIRKDLRSPLTATPTFVTDSESTRSTGLLDSGMFMNIHPSGVKTESAVLMTSDKAESCQGDLSTLANVVTSLANLGKTKDLSQNSNEMSMIESLSNDDTSLCEFQEMQTNGDVSRAFDTLAKALNPGESTACQSSVAGMEGSVHLITGDSSINYTEKEGPLLSDSHVAFRLTMPSPMPEYLNVHYIGESASRLLFLSMHWALSIPSFQALGQENSISLVKAYWNELFTLGLAQCWQVMNVATILATFVNCLHNSLQQDKMSTERRKLLMEHIFKLQEFCNSMVKLCIDGYEYAYLKAIVLFSPDHPSLENMEQIEKFQEKAYVEFQDYITKTYPDDTYRLSRLLLRLPALRLMNATITEELFFKGLIGNIRIDSVIPHILKMEPADYNSQIIGHSI
B2: TR4: Testicular Orphan Nuclear Receptor 4 (NR2C2), cDNA driver (protein, UniProt P49116 1-596, looked up)
Nuclear receptor subfamily 2 …: MTSPSPRIQIISTDSAVASPQRIQIVTDQQTGQKIQIVTAVDASGSPKQQFILTSPDGAGTGKVILASPETSSAKQLIFTTSDNLVPGRIQIVTDSASVERLLGKTDVQRPQVVEYCVVCGDKASGRHYGAVSCEGCKGFFKRSVRKNLTYSCRSNQDCIINKHHRNRCQFCRLKKCLEMGMKMESVQSERKPFDVQREKPSNCAASTEKIYIRKDLRSPLIATPTFVADKDGARQTGLLDPGMLVNIQQPLIREDGTVLLATDSKAETSQGALGTLANVVTSLANLSESLNNGDTSEIQPEDQSASEITRAFDTLAKALNTTDSSSSPSLADGIDTSGGGSIHVISRDQSTPIIEVEGPLLSDTHVTFKLTMPSPMPEYLNVHYICESASRLLFLSMHWARSIPAFQALGQDCNTSLVRACWNELFTLGLAQCAQVMSLSTILAAIVNHLQNSIQEDKLSGDRIKQVMEHIWKLQEFCNSMAKLDIDGYEYAYLKAIVLFSPDHPGLTSTSQIEKFQEKAQMELQDYVQKTYSEDTYRLARILVRLPALRLMSSNITEELFFTGLIGNVSIDSIIPYILKMETAEYNGQITGASL
B3: Erb: Estrogen Receptor β (NR3A2, ERb), cDNA driver (protein, UniProt Q92731 1-530, looked up)
Estrogen receptor beta: MDIKNSPSSLNSPSSYNCSQSILPLEHGSIYIPSSYVDSHHEYPAMTFYSPAVMNYSIPSNVTNLEGGPGRQTTSPNVLWPTPGHLSPLVVHRQLSHLYAEPQKSPWCEARSLEHTLPVNRETLKRKVSGNRCASPVTGPGSKRDAHFCAVCSDYASGYHYGVWSCEGCKAFFKRSIQGHNDYICPATNQCTIDKNRRKSCQACRLRKCYEVGMVKCGSRRERCGYRLVRRQRSADEQLHCAGKAKRSGGHAPRVRELLLDALSPEQLVLTLLEAEPPHVLISRPSAPFTEASMMMSLTKLADKELVHMISWAKKIPGFVELSLFDQVRLLESCWMEVLMMGLMWRSIDHPGKLIFAPDLVLDRDEGKCVEGILEIFDMLLATTSRFRELKLQHKEYLCVKAMILLNSSMYPLVTATQDADSSRKLAHLLNAVTDALVWVIAKSGISSQQQSMRLANLLMLLSHVRHASNKGMEHLLNMKCKNVVPVYDLLLEMLNAHVLRGCKSSITGSECSPAEDSKSKEGSQNPQSQ
B4: ERR2: Estrogen Related Receptor β (NR3B2, ERRb), cDNA driver (protein, UniProt O95718 1-433, looked up)
Steroid hormone receptor ERR2: MSSDDRHLGSSCGSFIKTEPSSPSSGIDALSHHSPSGSSDASGGFGLALGTHANGLDSPPMFAGAGLGGTPCRKSYEDCASGIMEDSAIKCEYMLNAIPKRLCLVCGDIASGYHYGVASCEACKAFFKRTIQGNIEYSCPATNECEITKRRRKSCQACRFMKCLKVGMLKEGVRLDRVRGGRQKYKRRLDSESSPYLSLQISPPAKKPLTKIVSYLLVAEPDKLYAMPPPGMPEGDIKALTTLCDLADRELVVIIGWAKHIPGFSSLSLGDQMSLLQSAWMEILILGIVYRSLPYDDKLVYAEDYIMDEEHSRLAGLLELYRAILQLVRRYKKLKVEKEEFVTLKALALANSDSMYIEDLEAVQKLQDLLHEALQDYELSQRHEEPWRTGKLLLTLPLLRQTAAKAVQHFYSVKLQGKVPMHKLFLEMLEAKV
B5: ERR3: Estrogen Related Receptor γ (NR3B3, ERRg), cDNA driver (protein, UniProt P62508 1-458, looked up)
Estrogen-related receptor …: MDSVELCLPESFSLHYEEELLCRMSNKDRHIDSSCSSFIKTEPSSPASLTDSVNHHSPGGSSDASGSYSSTMNGHQNGLDSPPLYPSAPILGGSGPVRKLYDDCSSTIVEDPQTKCEYMLNSMPKRLCLVCGDIASGYHYGVASCEACKAFFKRTIQGNIEYSCPATNECEITKRRRKSCQACRFMKCLKVGMLKEGVRLDRVRGGRQKYKRRIDAENSPYLNPQLVQPAKKPYNKIVSHLLVAEPEKIYAMPDPTVPDSDIKALTTLCDLADRELVVIIGWAKHIPGFSTLSLADQMSLLQSAWMEILILGVVYRSLSFEDELVYADDYIMDEDQSKLAGLLDLNNAILQLVKKYKSMKLEKEEFVTLKAIALANSDSMHIEDVEAVQKLQDVLHEALQDYEAGQHMEDPRRAGKMLMTLPLLRQTSTKAVQHFYNIKLEGKVPMHKLFLEMLEAKV

System: hCAR promoter
Assay: NHR-promoter luciferase screen, hCAR promoter
Format: cell-based, human
Settings: hCAR promoter-luciferase, CV-1 cells, NHR +/- ligand, control = 1.00
Summary of the method: (§1)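 CV-1 cells were co-transfected with 50 ng NHR (homodimer or NHR/RXR heterodimer), 100 ng promoter-luciferase construct and 50 ng LacZ. Luciferase was normalized to LacZ and to a no-NHR/no-ligand control.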

Molecule	luciferase activity normalized to lacZ activity and to a control, hCAR
B1	2.30
B2	3.15
B3	0.81
B4	0.77
B5	1.34

Same assay, conditions: hCAR promoter; HR/ligand component

Molecule	Luc. act., normalized to lacZ	Normalized Luc. act., normalized to control
B1	72.7	2.3
B2	99.4	3.1
B3	25.7	0.8
B4	24.2	0.8
B5	42.2	1.3

System: mNPY promoter
Assay: NHR-promoter luciferase screen, mNPY promoter
Format: cell-based, mouse
Settings: Table 6d; luciferase activity relative to control (control = 1.00)
Summary of the method: as §1

Molecule	Results of assays of transcription factor (+/- ligand) with mNPY
B1	1.27
B2	2.86
B3	0.79
B4	1.02
B5	1.11

Same assay, conditions: mNPY promoter; HR component with or without ligand

Molecule	Luc. act., normalized to lacZ
B1	106.6
B2	239.8
B3	66.5
B4	85.4
B5	93.1

Same assay, conditions: mNPY promoter; HR component with or without ligand; relative to control

Molecule	Normalized Luc. act., normalized to control
B1	1.3
B2	2.9
B3	0.8
B4	1.0
B5	1.1

System: mABCA1 promoter
Assay: NHR-promoter luciferase screen, mABCA1 promoter
Format: cell-based, mouse
Settings: ABCA1 promoter; hormone receptor with or without its ligand
Summary of the method: as §1

Molecule	Luc. act., normalized to lacZ
B1	31.2
B2	36.4
B3	12.4
B4	33.0
B5	11.4

Same assay, conditions: ABCA1 promoter; hormone receptor with or without its ligand; relative to control

Molecule	Normalized Luc. act., normalized to control
B1	5.6
B2	6.5
B3	2.2
B4	5.9
B5	2.0

Same assay, conditions: transcription factor +/- ligand; control = 1.00

Molecule	mABCA1 promoter reporter activity
B1	5.55
B2	6.49
B3	2.21
B4	5.88
B5	2.04

System: mAdiponectin promoter
Assay: NHR-promoter luciferase screen, mAdiponectin promoter
Format: cell-based, mouse
Settings: Adiponectin; HR component without or with its ligand
Summary of the method: as §1

Molecule	Luc. act., normalized to lacZ	Normalized Luc. act., normalized to control
B1	37.5	0.6
B2	296.1	4.7
B3	68.6	1.1
B4	55.3	0.9
B5	69.7	1.1

Same assay, conditions: transcription factor +/- ligand; control = 1.00

Molecule	mAdiponectin promoter reporter activity
B1	0.60
B2	4.71
B3	1.09
B4	0.88
B5	1.11

System: mUCP3 promoter
Assay: NHR-promoter luciferase screen, mUCP3 promoter
Format: cell-based, mouse
Settings: mUCP3 promoter reporter; HR without or with its ligand; relative to control
Summary of the method: as §1

Molecule	Normalized Luc. act., normalized to control
B1	2.0
B2	3.2
B3	1.3
B4	3.3
B5	3.1

Same assay, conditions: mUCP3 promoter reporter; hormone receptor (HR) without or with its ligand

Molecule	Luc. act., normalized to lacZ
B1	1.4
B2	2.2
B3	0.9
B4	2.2
B5	2.1

Same assay, conditions: transcription factor +/- ligand; control = 1.00

Molecule	mUCP3 promoter reporter activity
B1	2.01
B2	3.19
B3	1.28
B4	3.32
B5	3.06

System: mLeptin promoter
Assay: NHR-promoter luciferase screen, mLeptin promoter
Format: cell-based, mouse
Settings: Table 7; mLeptin
Summary of the method: as §1

Molecule	Luc. act., normalized to lacZ	Normalized Luc. act., normalized to control
B1	3.4	1.1
B2	7.5	2.6
B3	2.5	0.9
B4	9.7	3.3
B5	2.4	0.8

Same assay, conditions: Table 6d; luciferase activity relative to control (control = 1.00)

Molecule	Results of assays of transcription factor (+/- ligand) with mLeptin
B1	1.15
B2	2.56
B3	0.86
B4	3.30
B5	0.80

Same assay, conditions: mLeptin promoter-luciferase, NHR +/- ligand, control = 1.0

Molecule	luciferase/LacZ, mLeptin (selected results)
B2	2.6
B4	3.3
